We go through 1 molecule from article PMC5643063, “Viral infection upregulates myostatin promoter activity in orange-spotted grouper (Epinephelus coioides)”.

This series deals with T1, MyoD (Epinephelus coioides (orange-spotted …, UniProt D9IV55 1-269)).
T1 sequence: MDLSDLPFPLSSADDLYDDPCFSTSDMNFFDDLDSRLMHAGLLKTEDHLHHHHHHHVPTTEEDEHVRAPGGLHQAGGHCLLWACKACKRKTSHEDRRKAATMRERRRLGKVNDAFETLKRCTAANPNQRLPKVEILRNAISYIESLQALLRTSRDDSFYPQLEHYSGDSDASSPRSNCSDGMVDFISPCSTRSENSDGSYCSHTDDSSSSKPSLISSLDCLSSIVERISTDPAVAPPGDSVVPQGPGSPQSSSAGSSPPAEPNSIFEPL
Put plainly: EMSA; 2 ug MyoD, increasing probe, poly[d(I-C)] 0.1 ng, 5 mM Mg2+; 20 mM HEPES pH 7.9, 50 mM KCl, 5 mM MgCl2, 0.5 mM EDTA, 5 mM DTT, 5% glycerol, 0.1 ng poly[d(I-C)], 30 min room temperature; 6.5% native PAGE 0.5X TBE. To be noted: protein: recombinant; tags: C-terminal pET-29a His tag likely (NdeI/XhoI primers, no stop codon); chain copies: 2; label: Cy3; blunt. (In general: In EMSA bound probe runs differently from free probe, usually more slowly.)

B1: E-box E6 probe (E6F/E6R) (dsDNA)
DNA 1: CTGTATGTGGATCATTTGTGTCTTTGGTGG
DNA 2: CCACCAAAGACACAAATGATCCACATACAG
B1: the binding result is recorded as “binds”.
